The text below walks through data of patent publication US20190062438A1 (CSL, published 2019).

Sequences and labels used below:
T1: human CD131 (human, UniProt P32927 17-897)
T1 sequence: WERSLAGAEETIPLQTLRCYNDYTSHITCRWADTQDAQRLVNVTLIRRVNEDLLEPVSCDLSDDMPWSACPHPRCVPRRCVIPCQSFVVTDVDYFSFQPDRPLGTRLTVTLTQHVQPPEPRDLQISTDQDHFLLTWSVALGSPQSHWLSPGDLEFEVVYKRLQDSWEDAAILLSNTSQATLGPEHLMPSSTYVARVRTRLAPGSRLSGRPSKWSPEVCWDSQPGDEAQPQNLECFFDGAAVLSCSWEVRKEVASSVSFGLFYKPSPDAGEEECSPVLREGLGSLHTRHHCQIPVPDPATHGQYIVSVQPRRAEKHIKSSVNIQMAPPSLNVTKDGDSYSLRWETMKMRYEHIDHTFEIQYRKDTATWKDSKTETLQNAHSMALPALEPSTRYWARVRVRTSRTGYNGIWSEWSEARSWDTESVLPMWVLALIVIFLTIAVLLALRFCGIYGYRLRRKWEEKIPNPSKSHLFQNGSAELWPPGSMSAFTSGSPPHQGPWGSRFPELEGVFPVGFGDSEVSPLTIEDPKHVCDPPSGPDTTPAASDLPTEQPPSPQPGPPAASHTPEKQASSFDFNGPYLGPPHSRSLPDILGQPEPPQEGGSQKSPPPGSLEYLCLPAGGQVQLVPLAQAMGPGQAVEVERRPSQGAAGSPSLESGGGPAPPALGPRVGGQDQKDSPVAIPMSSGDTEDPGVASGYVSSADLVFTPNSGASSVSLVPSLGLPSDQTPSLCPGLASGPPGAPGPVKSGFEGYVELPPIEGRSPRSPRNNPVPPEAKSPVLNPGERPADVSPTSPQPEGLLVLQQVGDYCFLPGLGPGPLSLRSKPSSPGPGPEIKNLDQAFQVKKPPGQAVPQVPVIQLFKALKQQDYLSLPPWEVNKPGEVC

B1: 9A2-VR39.109 (antibody, V domains shown)
VH: EVQLLESGGGLVQPGGSLRLSCAASGFTFMWYHHIWVRQAPGKGLEWVSSINGRGRVTYYADSVKGRFTISRDNSKNTLYLQMNSLRAEDTAVYYCARFYDSFFDIWGQGTMVTVSS
VL: DIQMTQSPSSVSASVGDRVTITCRASQGISSWLAWYQQKPGKAPKLLIYAASSLQSGVPSRFSGSGSGTDFTLTISSLQPEDFATYYCQQANSFPITFGQGTRLEIKR
B2: 9A2-VR39.139 (antibody, V domains shown)
VH: EVQLLESGGGLVQPGGSLRLSCAASPRWEWNYHMLWVRQAPGKGLEWVSSINGRGRVTYYADSVKGRFTISRDNSKNTLYLQMNSLRAEDTAVYYCARFYDSFFDIWGQGTMVTVSS
VL: DIQMTQSPSSVSASVGDRVTITCRASQGISSWLAWYQQKPGKAPKLLIYAASSLQSGVPSRFSGSGSGTDFTLTISSLQPEDFATYYCQQANSFPITFGQGTRLEIKR
B3: 9A2-VR39.162 (antibody, V domains shown)
VH: EVQLLESGGGLVQPGGSLRLSCAASGFTFSHYHMLWVRQAPGKGLEWVSSINGRGRVPQMAQEVKGRFTISRDNSKNTLYLQMNSLRAEDTAVYYCARFYDSFFDIWGQGTMVTVSS
VL: DIQMTQSPSSVSASVGDRVTITCRASQGISSWLAWYQQKPGKAPKLLIYAASSLQSGVPSRFSGSGSGTDFTLTISSLQPEDFATYYCQQANSFPITFGQGTRLEIKR
B4: 9A2-VR39.110 (antibody, V domains shown)
VH: EVQLLESGGGLVQPGGSLRLSCAASGFTFVWYHHIWVRQAPGKGLEWVSSINGRGRVTYYADSVKGRFTISRDNSKNTLYLQMNSLRAEDTAVYYCARFYDSFFDIWGQGTMVTVSS
VL: DIQMTQSPSSVSASVGDRVTITCRASQGISSWLAWYQQKPGKAPKLLIYAASSLQSGVPSRFSGSGSGTDFTLTISSLQPEDFATYYCQQANSFPITFGQGTRLEIKR
B5: 9A2-VR39.112 (antibody, V domains shown)
VH: EVQLLESGGGLVQPGGSLRLSCAASGFTFPYYHQVWVRQAPGKGLEWVSSINGRGRVTYYADSVKGRFTISRDNSKNTLYLQMNSLRAEDTAVYYCARFYDSFFDIWGQGTMVTVSS
VL: DIQMTQSPSSVSASVGDRVTITCRASQGISSWLAWYQQKPGKAPKLLIYAASSLQSGVPSRFSGSGSGTDFTLTISSLQPEDFATYYCQQANSFPITFGQGTRLEIKR
B6: 9A2-VR39.122 (antibody, V domains shown)
VH: EVQLLESGGGLVQPGGSLRLSCAASAGFFEYYHMLWVRQAPGKGLEWVSSINGRGRVTYYADSVKGRFTISRDNSKNTLYLQMNSLRAEDTAVYYCARFYDSFFDIWGQGTMVTVSS
VL: DIQMTQSPSSVSASVGDRVTITCRASQGISSWLAWYQQKPGKAPKLLIYAASSLQSGVPSRFSGSGSGTDFTLTISSLQPEDFATYYCQQANSFPITFGQGTRLEIKR
B7: 9A2-VR39.28 (antibody, V domains shown)
VH: EVQLLESGGGLVQPGGSLRLSCAASRGAPMWYHMLWVRQAPGKGLEWVSSINGRGRVTYYADSVKGRFTISRDNSKNTLYLQMNSLRAEDTAVYYCARFYDSFFDIWGQGTMVTVSS
VL: DIQMTQSPSSVSASVGDRVTITCRASQGISSWLAWYQQKPGKAPKLLIYAASSLQSGVPSRFSGSGSGTDFTLTISSLQPEDFATYYCQQANSFPITFGQGTRLEIKR
B8: 9A2-VR39.77 (antibody, V domains shown)
VH: EVQLLESGGGLVQPGGSLRLSCAASGFTFSHYHMLWVRQAPGKGLEWVSSINGRGRVTYYQWPMNKRFTISRDNSKNTLYLQMNSLRAEDTAVYYCARFYDSFFDIWGQGTMVTVSS
VL: DIQMTQSPSSVSASVGDRVTITCRASQGISSWLAWYQQKPGKAPKLLIYAASSLQSGVPSRFSGSGSGTDFTLTISSLQPEDFATYYCQQANSFPITFGQGTRLEIKR
B9: 9A2-VR39.27 (antibody, V domains shown)
VH: EVQLLESGGGLVQPGGSLRLSCAASRTSFMWYHMLWVRQAPGKGLEWVSSINGRGRVTYYADSVKGRFTISRDNSKNTLYLQMNSLRAEDTAVYYCARFYDSFFDIWGQGTMVTVSS
VL: DIQMTQSPSSVSASVGDRVTITCRASQGISSWLAWYQQKPGKAPKLLIYAASSLQSGVPSRFSGSGSGTDFTLTISSLQPEDFATYYCQQANSFPITFGQGTRLEIKR
B10: 9A2-VR39.116 (antibody, V domains shown)
VH: EVQLLESGGGLVQPGGSLRLSCAASGFTFPWFVMVWVRQAPGKGLEWVSSINGRGRVTYYADSVKGRFTISRDNSKNTLYLQMNSLRAEDTAVYYCARFYDSFFDIWGQGTMVTVSS
VL: DIQMTQSPSSVSASVGDRVTITCRASQGISSWLAWYQQKPGKAPKLLIYAASSLQSGVPSRFSGSGSGTDFTLTISSLQPEDFATYYCQQANSFPITFGQGTRLEIKR
B11: 9A2-VR39.111 (antibody, V domains shown)
VH: EVQLLESGGGLVQPGGSLRLSCAASGFTFPWFHFVWVRQAPGKGLEWVSSINGRGRVTYYADSVKGRFTISRDNSKNTLYLQMNSLRAEDTAVYYCARFYDSFFDIWGQGTMVTVSS
VL: DIQMTQSPSSVSASVGDRVTITCRASQGISSWLAWYQQKPGKAPKLLIYAASSLQSGVPSRFSGSGSGTDFTLTISSLQPEDFATYYCQQANSFPITFGQGTRLEIKR
B12: 9A2-VR39.93 (antibody, V domains shown)
VH: EVQLLESGGGLVQPGGSLRLSCAASGFTFSHYHMLWVRQAPGKGLEWVSSINGRGRVTYYNPAWKKRFTISRDNSKNTLYLQMNSLRAEDTAVYYCARFYDSFFDIWGQGTMVTVSS
VL: DIQMTQSPSSVSASVGDRVTITCRASQGISSWLAWYQQKPGKAPKLLIYAASSLQSGVPSRFSGSGSGTDFTLTISSLQPEDFATYYCQQANSFPITFGQGTRLEIKR
B13: 9A2-VR39.46 (antibody, V domains shown)
VH: EVQLLESGGGLVQPGGSLRLSCAASDVDFGWYHMLWVRQAPGKGLEWVSSINGRGRVTYYADSVKGRFTISRDNSKNTLYLQMNSLRAEDTAVYYCARFYDSFFDIWGQGTMVTVSS
VL: DIQMTQSPSSVSASVGDRVTITCRASQGISSWLAWYQQKPGKAPKLLIYAASSLQSGVPSRFSGSGSGTDFTLTISSLQPEDFATYYCQQANSFPITFGQGTRLEIKR
B14: 9A2-VR39.140 (antibody, V domains shown)
VH: EVQLLESGGGLVQPGGSLRLSCAASAYSEMWYHMLWVRQAPGKGLEWVSSINGRGRVTYYADSVKGRFTISRDNSKNTLYLQMNSLRAEDTAVYYCARFYDSFFDIWGQGTMVTVSS
VL: DIQMTQSPSSVSASVGDRVTITCRASQGISSWLAWYQQKPGKAPKLLIYAASSLQSGVPSRFSGSGSGTDFTLTISSLQPEDFATYYCQQANSFPITFGQGTRLEIKR
B15: 9A2-VR39.148 (antibody, V domains shown)
VH: EVQLLESGGGLVQPGGSLRLSCAASGFTFSHYHMLWVRQAPGKGLEWVSSINGRGRVTHVAQEVKGRFTISRDNSKNTLYLQMNSLRAEDTAVYYCARFYDSFFDIWGQGTMVTVSS
VL: DIQMTQSPSSVSASVGDRVTITCRASQGISSWLAWYQQKPGKAPKLLIYAASSLQSGVPSRFSGSGSGTDFTLTISSLQPEDFATYYCQQANSFPITFGQGTRLEIKR

The target of the experiment is T1, human CD131. The experiment is described as follows: cell-based or functional assay.
Regarding B1, the “IC50 GM-CSF, TF-1 proliferation” value is 0.24 nM.

As for B2, the “IC50 GM-CSF, TF-1 proliferation” value came to 21.5 nM.

For B3, the “IC50 GM-CSF, TF-1 proliferation” value worked out at 3.6 nM.

Turning to B4, the “IC50 GM-CSF, TF-1 proliferation” value was determined as 0.28 nM.

B5: the “IC50 GM-CSF, TF-1 proliferation” value is 1 nM.

As for B6, the “IC50 GM-CSF, TF-1 proliferation” value was found to be 15 nM.

For the molecule B7, the “IC50 GM-CSF, TF-1 proliferation” value stood at 57.2 nM.

As to B8, the “IC50 GM-CSF, TF-1 proliferation” value stood at 2.03 nM.

For B9, the “IC50 GM-CSF, TF-1 proliferation” value was 17.9 nM.

For B10, the “IC50 GM-CSF, TF-1 proliferation” value came out at 7.93 nM.

As to B11, the “IC50 GM-CSF, TF-1 proliferation” value was determined as 0.99 nM.

As to B12, the “IC50 GM-CSF, TF-1 proliferation” value worked out at 0.28 nM.

In the case of B13, the “IC50 GM-CSF, TF-1 proliferation” value came to 3.34 nM.

Turning to B14, the “IC50 GM-CSF, TF-1 proliferation” value amounted to 42.5 nM.

Take B15: the “IC50 GM-CSF, TF-1 proliferation” value stood at 1.12 nM.
